Data reported in patent US20250011363A1, “OPTIMIZED SHORTENED PEPTIDE THAT BINDS TO ACETYLCHOLINE RECEPTOR, AND USE THEREOF” (SKINMED CO., LTD., priority 2021, published 2025).

Each binder was assayed against acetylcholine receptor (assay: SPR, AchR immobilised on CM5 chip, peptide 10 uM).

| Binder | Binding affinity (RU) |
| --- | --- |
| KCAVKK [6mer-2-697] | 19 |
| KCEDKK [6mer-2-698] | 27 |
| KNAGKR [6mer-2-699] | 23 |
| RPWHKK [6mer-2-700] | 15 |
| KTWAKR [6mer-2-701] | 23 |
| KEMIKR [6mer-2-702] | 18 |
| RTMHKR [6mer-2-703] | 14 |
| KDWHRK [6mer-2-704] | 20 |
| RENFKK [6mer-2-705] | 11 |
| KFTDRK [6mer-2-706] | 23 |
| RTWKRK [6mer-2-707] | 21 |
| RAWVKK [6mer-2-708] | 29 |
| RIWPKR [6mer-2-709] | 31 |
| RNKKKK [6mer-2-710] | 14 |
| KECGRR [6mer-2-711] | 29 |
| KIPHRR [6mer-2-712] | 29 |
| RASWRR [6mer-2-713] | 24 |
| KIDVRK [6mer-2-714] | 30 |
| RATHRK [6mer-2-715] | 32 |
| RTWKKR [6mer-2-716] | 18 |
| KCPGKR [6mer-2-717] | 15 |
| KYTFKR [6mer-2-718] | 12 |
| KIKPRR [6mer-2-719] | 29 |
| RATNRK [6mer-2-720] | 29 |
| RHSKKK [6mer-2-721] | 26 |
| RNEHRR [6mer-2-722] | 21 |

| Binder | Binding affinity (RU) |
| --- | --- |
| KEDMKR [6mer-2-723] | 23 |
| KYTMKK [6mer-2-724] | 24 |
| KAHMKK [6mer-2-725] | 25 |
| KHHKKK [6mer-2-726] | 25 |
| RDMIKR [6mer-2-727] | 11 |
| RMTMKK [6mer-2-728] | 23 |
| RCPDKR [6mer-2-729] | 30 |
| RNTHKR [6mer-2-730] | 26 |
| KASWKK [6mer-2-731] | 19 |
| KPTWRK [6mer-2-732] | 24 |
| RTPARK [6mer-2-733] | 29 |
| KHCHRR [6mer-2-734] | 17 |
| KMNAKK [6mer-2-735] | 21 |
| KNNHKK [6mer-2-736] | 29 |
| KDSVRR [6mer-2-737] | 19 |
| KPWFKK [6mer-2-738] | 29 |
| RIHAKK [6mer-2-739] | 17 |
| KIDIRR [6mer-2-740] | 12 |
| KNEKKR [6mer-2-741] | 30 |
| KNNWRR [6mer-2-742] | 32 |
| KHTMKR [6mer-2-743] | 18 |
| KDHPRK [6mer-2-744] | 19 |
| KNTERR [6mer-2-745] | 17 |
| RIKVRK [6mer-2-746] | 26 |
| RANFRR [6mer-2-747] | 29 |
| RFDKKR [6mer-2-748] | 28 |

| Binder | Binding affinity (RU) |
| --- | --- |
| KMWKRK [6mer-2-749] | 20 |
| RKCVKR [6mer-2-750] | 29 |
| RPHWKR [6mer-2-751] | 12 |
| KINWRR [6mer-2-752] | 29 |
| RYEHRR [6mer-2-753] | 18 |
| KADGRR [6mer-2-754] | 12 |
| RYNDKK [6mer-2-755] | 18 |
| KPTNRK [6mer-2-756] | 26 |
| RIPNKR [6mer-2-757] | 19 |
| RFSFKK [6mer-2-758] | 18 |
| RFDEKK [6mer-2-759] | 18 |
| KIPVKK [6mer-2-760] | 15 |
| RTEPRK [6mer-2-761] | 29 |
| KFEERK [6mer-2-762] | 24 |
| KMKERR [6mer-2-763] | 19 |
| RNAVKK [6mer-2-764] | 31 |
| KHSPRK [6mer-2-765] | 23 |
| RPTFRK [6mer-2-766] | 23 |
| RICGRK [6mer-2-767] | 13 |
| KYMGRK [6mer-2-768] | 22 |
| RCPFRK [6mer-2-769] | 13 |
| KPNMKK [6mer-2-770] | 24 |
| KITARR [6mer-2-771] | 26 |
| RHPAKK [6mer-2-772] | 15 |
| KPDARR [6mer-2-773] | 11 |
| KFDARK [6mer-2-774] | 17 |
